Assay results published in the supplement of paper PMC10567573.

B1: TRAF3IP2 (parent)
chain: KEHVPTWLQNTHVYSWPKNKKNIL
B2: NFE2L1 (parent)
chain: TLDGYGIHPKSIDLDNYFTARRLL
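Also: lentivirally expressed fusions sorted by FACS into six bins by GFP to DsRed ratio, PSI derived from sequencing read proportions per bin multiplied by bin number.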

Variants of: B1
Test: protein stability index of a GFP-peptide fusion (GPS, HEK-293T) (PSI 1-6); higher = more stable
Details: c terminus: a fixed tail appended
KEHVPTWLQNTHVYSWPKNKKNKL [I23K] gave a protein stability index of 3.52. KEHVPTWLQNTHVYSWPKNKKNAL [I23A] showed a protein stability index of 2.89. KEHVPTWLQNTHVYSWPKNKKNGL [I23G] showed a protein stability index of 2.96. Variant KEHVPTWLQNTHVYSWPKNKKNCL [I23C] has a protein stability index of 3.02. For KEHVPTWLQNTHVYSWPKNKKNEL [I23E], the protein stability index was 3.54. In the case of KEHVPTWLQNTHVYSWPKNKKNHL [I23H], the protein stability index is reported as 3.19. KEHVPTWLQNTHVYSWPKNKKNYL [I23Y] gave a protein stability index of 3.55. With KEHVPTWLQNTHVYSWPKNKKNLL [I23L] the protein stability index was 2.68. For KEHVPTWLQNTHVYSWPKNKKNPL [I23P], the protein stability index was 2.54. With KEHVPTWLQNTHVYSWPKNKKNRL [I23R] the protein stability index was 3.74. Work on KEHVPTWLQNTHVYSWPKNKKNQL [I23Q] yielded a protein stability index of 2.75. For KEHVPTWLQNTHVYSWPKNKKNSL [I23S], the protein stability index was 2.94. Work on KEHVPTWLQNTHVYSWPKNKKNVL [I23V] yielded a protein stability index of 3.07. For KEHVPTWLQNTHVYSWPKNKKNML [I23M], the protein stability index was 2.91. Work on KEHVPTWLQNTHVYSWPKNKKNNL [I23N] yielded a protein stability index of 3.19. With KEHVPTWLQNTHVYSWPKNKKNTL [I23T] the protein stability index was 2.54. Variant KEHVPTWLQNTHVYSWPKNKKNDL [I23D] has a protein stability index of 3.75. KEHVPTWLQNTHVYSWPKNKKNFL [I23F] showed a protein stability index of 2.69. For KEHVPTWLQNTHVYSWPKNKKNWL [I23W], the protein stability index was 2.3. For KEHVPTWLQNTHVYSWPKNKKPIL [N22P], the protein stability index was 2.84. In the case of KEHVPTWLQNTHVYSWPKNKKHIL [N22H], the protein stability index is reported as 2.08. Work on KEHVPTWLQNTHVYSWPKNKKYIL [N22Y] yielded a protein stability index of 1.56. KEHVPTWLQNTHVYSWPKNKKMIL [N22M] gave a protein stability index of 2.19. Work on KEHVPTWLQNTHVYSWPKNKKGIL [N22G] yielded a protein stability index of 2.7. Variant KEHVPTWLQNTHVYSWPKNKKKIL [N22K] has a protein stability index of 2.9. In the case of KEHVPTWLQNTHVYSWPKNKKTIL [N22T], the protein stability index is reported as 2.75. With KEHVPTWLQNTHVYSWPKNKKQIL [N22Q] the protein stability index was 2.72. Work on KEHVPTWLQNTHVYSWPKNKKLIL [N22L] yielded a protein stability index of 1.7. In the case of KEHVPTWLQNTHVYSWPKNKKIIL [N22I], the protein stability index is reported as 1.5. Work on KEHVPTWLQNTHVYSWPKNKKRIL [N22R] yielded a protein stability index of 2.2. With KEHVPTWLQNTHVYSWPKNKKSIL [N22S] the protein stability index was 1.97. For KEHVPTWLQNTHVYSWPKNKKVIL [N22V], the protein stability index was 2.51. KEHVPTWLQNTHVYSWPKNKKNII [L24I] gave a protein stability index of 2.67. With KEHVPTWLQNTHVYSWPKNKKNID [L24D] the protein stability index was 3.24. Variant KEHVPTWLQNTHVYSWPKNKKNIY [L24Y] has a protein stability index of 2.51. KEHVPTWLQNTHVYSWPKNKKNIV [L24V] gave a protein stability index of 2.47. With KEHVPTWLQNTHVYSWPKNKKNIR [L24R] the protein stability index was 3.49. KEHVPTWLQNTHVYSWPKNKKNIA [L24A] gave a protein stability index of 3.28. With KEHVPTWLQNTHVYSWPKNKKNIM [L24M] the protein stability index was 2.73. For KEHVPTWLQNTHVYSWPKNKKNIW [L24W], the protein stability index was 1.86. In the case of KEHVPTWLQNTHVYSWPKNKKNIQ [L24Q], the protein stability index is reported as 2.98. In the case of KEHVPTWLQNTHVYSWPKNKKNIE [L24E], the protein stability index is reported as 2.84. Work on KEHVPTWLQNTHVYSWPKNKKNIC [L24C] yielded a protein stability index of 2.69. Variant KEHVPTWLQNTHVYSWPKNKKNIP [L24P] has a protein stability index of 2.98. KEHVPTWLQNTHVYSWPKNKKNIN [L24N] showed a protein stability index of 3.08. For KEHVPTWLQNTHVYSWPKNKKNIG [L24G], the protein stability index was 3.93. Variant KEHVPTWLQNTHVYSWPKNKKNIT [L24T] has a protein stability index of 3.18. For KEHVPTWLQNTHVYSWPKNKKNIS [L24S], the protein stability index was 2.51. Variant KEHVPTWLQNTHVYSWPKNKKNIF [L24F] has a protein stability index of 2.2. Work on KEHVPTWLQNTHVYSWPKNKKNIK [L24K] yielded a protein stability index of 3.49. In the case of KEHVPTWLQNTHVYSWPKNKKNIH [L24H], the protein stability index is reported as 3.17.

Variants of: B2
Test: as above
Details: c terminus: a fixed tail appended
TLDGYGIPPKSIDLDNYFTARRLL [H8P] showed a protein stability index of 1.94. With TLDGYGIWPKSIDLDNYFTARRLL [H8W] the protein stability index was 1.66. TLDGYGISPKSIDLDNYFTARRLL [H8S] gave a protein stability index of 1.81. TLDGYGIMPKSIDLDNYFTARRLL [H8M] gave a protein stability index of 1.82. With TLDGYGIIPKSIDLDNYFTARRLL [H8I] the protein stability index was 1.98. In the case of TLDGYGIAPKSIDLDNYFTARRLL [H8A], the protein stability index is reported as 2.22. Variant TLDGYGIHPKSIDLDNTFTARRLL [Y17T] has a protein stability index of 2.24. Variant TLDGYGIHPKSIDLDNPFTARRLL [Y17P] has a protein stability index of 3.23. For TLDGYGIHPKSIDLDNVFTARRLL [Y17V], the protein stability index was 2.21. Variant TLDGYGIHPKSIDLDNNFTARRLL [Y17N] has a protein stability index of 2.59. Variant TLDGYGIHPKSIDSDNYFTARRLL [L14S] has a protein stability index of 2.62. TLDGYGIHPKSIDMDNYFTARRLL [L14M] gave a protein stability index of 2.02. In the case of TLDGYGIHPKSIDFDNYFTARRLL [L14F], the protein stability index is reported as 1.82. In the case of TLDGYGIHPKSIDDDNYFTARRLL [L14D], the protein stability index is reported as 2.71. In the case of TLDGYGIHPKSIDKDNYFTARRLL [L14K], the protein stability index is reported as 2.49. For TLDGYGIHPKSIDHDNYFTARRLL [L14H], the protein stability index was 2.01. Variant TLDGYGIHPKSIDRDNYFTARRLL [L14R] has a protein stability index of 2.1. Work on TLDGYGIHPKSIDEDNYFTARRLL [L14E] yielded a protein stability index of 3.11. TLDGYGIHPKSIDWDNYFTARRLL [L14W] showed a protein stability index of 1.95. TPDGYGIHPKSIDLDNYFTARRLL [L2P] gave a protein stability index of 2.68. Work on TNDGYGIHPKSIDLDNYFTARRLL [L2N] yielded a protein stability index of 2.06. TLDGYGIHPKSIDLDNYFTGRRLL [A20G] gave a protein stability index of 1.71. With TLDGYGIHPKSIDLDNYFTLRRLL [A20L] the protein stability index was 1.53. Work on TLDGYGIHPKSIDLDNYFTPRRLL [A20P] yielded a protein stability index of 1.84. Variant TLDGYGIHPKSIDLDNYFTTRRLL [A20T] has a protein stability index of 1.49. Variant TLDGYGIHPKSIDLDNYFTCRRLL [A20C] has a protein stability index of 1.6. For TLDGYGCHPKSIDLDNYFTARRLL [I7C], the protein stability index was 2.4. In the case of TLDGYGKHPKSIDLDNYFTARRLL [I7K], the protein stability index is reported as 1.75. With TLDGYGEHPKSIDLDNYFTARRLL [I7E] the protein stability index was 2.27. With TLDGYGGHPKSIDLDNYFTARRLL [I7G] the protein stability index was 1.92. In the case of TLDGYGYHPKSIDLDNYFTARRLL [I7Y], the protein stability index is reported as 1.9. Work on TLDGYGFHPKSIDLDNYFTARRLL [I7F] yielded a protein stability index of 1.62. With QLDGYGIHPKSIDLDNYFTARRLL [T1Q] the protein stability index was 1.99. WLDGYGIHPKSIDLDNYFTARRLL [T1W] showed a protein stability index of 3.41. LLDGYGIHPKSIDLDNYFTARRLL [T1L] showed a protein stability index of 1.57. With ELDGYGIHPKSIDLDNYFTARRLL [T1E] the protein stability index was 1.54. For SLDGYGIHPKSIDLDNYFTARRLL [T1S], the protein stability index was 1.82. TLDGYGIHPKSIDLDNYFTARKLL [R22K] gave a protein stability index of 2.2. For TLDGYGIHPKSIDLDNYFTARALL [R22A], the protein stability index was 1.49. Work on TLDGYGIHPKSIDLDNYFTARHLL [R22H] yielded a protein stability index of 2.2. Work on TLDGYGIHPKSIDLDNYFTARGLL [R22G] yielded a protein stability index of 2.53. With TLDGYGIHPKSIDLDNYFTARDLL [R22D] the protein stability index was 2.05. With TLDGYGIHPKSIDLDNYFTARSLL [R22S] the protein stability index was 1.69.
